Experiment: yeast display, Sf9 membrane polyspecificity reagent, FACS + sequencing; frameworks hold sequencing errors
In short: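 Galactose induction of a Saccharomyces cerevisiae BJ5465 synthetic nanobody display library ran 36–48 hours. The cells were then stained for 1 hour at 4 °C with 10% biotinylated, detergent-solubilized Sf9 membrane reagent, pulled down on streptavidin microbeads and FACS-sorted into low and high (top ~1%) gates on expression and reagent-binding fluorescence. Labels for polyreactivity follow the gate of origin.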

QVQLVESGGGLVQAGGSLRLSCAASARIFDTYAMGWYRQAPGKETELVDSISIDGSTYYADSVKGRFTISRDNAKNTVYLQMNSLKPEDTAVYYCNADGRYYTVRFEYWGQGTQVTVSS
polyreactivity (PSR sort gate): low polyreactivity

QVQLVESGGGLVQAGGSLRLSCAASARIFPVYAMGWYRQAPGKERELVAAISRSAGRTYYADSVKGRFTISRDNAKNTVYLQMNRLKPEDTAVYFCAAQSPYGYDYWGQGTQVTVSS
polyreactivity (PSR sort gate): low polyreactivity

QVQLVESGGGLVQAGGSLRLSCAASARIYTTYAMGWYRQAPGKERELVASITTTDTRTYADSVKGRFTISRDNAKNTVYLQMNSLKPEDTAVYYCAKDRLNKGRYYRGASDYWGLGTQVTVSS
polyreactivity (PSR sort gate): low polyreactivity

QVQLVESGGGLVQAGGSLRLSCAASARTFKPYAMGWYRQAPGKERELVAAISTRGGSTYYADSVKGRFTISRDNAKNTVYLQMNSLKPEDTAVYYCAATQPCRDYDYWGQGTQVTVSS
polyreactivity (PSR sort gate): low polyreactivity

QVQLVESGGGLVQAGGSLRLSCAASARTFSYYTMGWSRQEPGKARELVARISNRGTNTYYADSVKGRFTISRDNAKNTVYLQMNSLKPEDTAVYYFAKYYYSSIVGYDSWGQGTQLTVSS
polyreactivity (PSR sort gate): low polyreactivity

QVQLVESGGGLVQAGGSLRLSCAASARTYGNYAMGWYREAPGKERELVADITRRGGSTSYADSVKGRFTISRDNAKNTVYLQMNSLKPEDTAVYYCNKRTTPYYAQGISRLEYDYWGQGTQVTVSS
polyreactivity (PSR sort gate): low polyreactivity

QVQLVESGGGLVQAGGSLRLSCAASASIFAYKAIGWYRQAPGKESELVASITNGGSTYYADSVKGRFTISRDNAKNTVYLQMNSLKQEDTAVYYCNTDFDVYSVGYDGYWGQGTQVTVSS
polyreactivity (PSR sort gate): low polyreactivity

QVQLVESGGGLVQAGGSLRLSCAASASIFILNAMGWYRPAPGKERELVAAISWSGGRTNYADSVKGRFTISRDTAKNTVYLHMNSLKPEETAVYFCAARVTPYRGFYYWGQGTQVTVSS
polyreactivity (PSR sort gate): high polyreactivity

QVQLVESGGGLVQAGGSLRLSCAASASIFNYYAMGRYRQAPGKERELVAAITSGGSTYYADSVKGRFSISRDNAKNTVYLQMNSVKPEDTAVYYCNKAFPYIYDYWGQGTQVTVSS
polyreactivity (PSR sort gate): low polyreactivity

QVQLVESGGGLVQAGGSLRLSCAASASILVRYAMVCYRQAPGKKREMVSAITATSGGTYYADSVKGRFTFSLDNAKNTVYLQMYSLKPEDTAVYYCNADGGSGAYLDLTITDYDYWGQGTQVTVSS
polyreactivity (PSR sort gate): low polyreactivity

QVQLVESGGGLVQAGGSLRLSCAASASIYAHYEMGWYRQAPGKERELVAAITASGGTTYYADSVKGRFTISRDNAKNTVYLQMNSLKPEDTAVYYCNAGKRTFLYDRDDYWGQGTQVTVSS
polyreactivity (PSR sort gate): high polyreactivity

QVQLVESGGGLVQAGGSLRLSCAASASTFSTYAMGSYRQAPGKERELVAAISWSGGSTNYADSVKGRLTISRDIAKYTVYLQMNSLKPEDTAVYYCGARWTSRYDYWGQGTQVTVSS
polyreactivity (PSR sort gate): high polyreactivity

QVQLVESGGGLVQAGGSLRLSCAASASTFWKYAMGWYRQAPGKEREFVAAITRSGGNTYYADSVQGRFTISRDNAKNTVFLQMNSLKPEDTAVYYCDKVTTVPYTNDYWGQGTQVTVSS
polyreactivity (PSR sort gate): high polyreactivity

QVQLVESGGGLVQAGGSLRLSCAASASTLYYNAMAWYIQAPGKERELVAAITSGGSTSYADSVKGRFTISRDNAKNTVYLQMNSLKPEDTAVYYCAAVFYRRFDYWGQGTQVTVSS
polyreactivity (PSR sort gate): low polyreactivity

QVQLVESGGGLVQAGGSLRLSCAASASTTYYAMGWYRQAPGKERELVAAISFSGGSTFYADSVKGRFTISRDNAKNTVYLQMNCLKPEDTGVYYCATQEGPHKLDPRGYYWGQGTQVTVSS
polyreactivity (PSR sort gate): low polyreactivity

QVQLVESGGGLVQAGGSLRLSCAASDTPSSSMLMGWYRQAPGKERELVAAISGSDGTTYYADSVKGRFTISRDNAKNTVYLQMNSLKPEDTAVYYCAADDRVDSGYIKDDYWGQGTQVTVSS
polyreactivity (PSR sort gate): low polyreactivity

QVQLVESGGGLVQAGGSLRLSCAASEFIFARNGMGWYRQAPGKERELVAAITNSGSTYADSVKGRFTISRDNAKNTVYLQMNSLKPEDTAVYYCNKDPGNVSSYTGGGYWGQGTQVTVSS
polyreactivity (PSR sort gate): low polyreactivity

QVQLVESGGGLVQAGGSLRLSCAASGAIFGAITMGWYREAPGKERELVAAISKRGGSTYYADSVKGRFTSSRDNAKNTVYLQMNSLKPEDTAVYYCNATPRYLRQYVDPNWGYDYWGQGTQVTVSS
polyreactivity (PSR sort gate): low polyreactivity

QVQLVESGGGLVQAGGSLRLSCAASGAMGCYRQAPGKERELVAGITSGGSTNYADSEKGRFTISRDNAKNTVYLQMNSLKPEDTAVYYCNAVGGPRWFSVGWPYDYWGQGTQVTVSS
polyreactivity (PSR sort gate): low polyreactivity

QVQLVESGGGLVQAGGSLRLSCAASGATFGRNAMGWYRQAPGKERELVAAISWSASRTSYADSVKGRFTISRDNAKNTVYLQMNSLKPEDTAVYYCAARIWRSYYPYDYWGQGTQVTVSS
polyreactivity (PSR sort gate): high polyreactivity

QVQLVESGGGLVQAGGSLRLSCAASGATFGYYAMGWYRQAPGKEMEFVARITQRGSRTYYADSVKGRFTISRDNAKNTVYLQMNSLKPEDTAVYYCDAEVWWTHNGRGAYGYDYWGQGTHVTVSS
polyreactivity (PSR sort gate): high polyreactivity

QVQLVESGGGLVQAGGSLRLSCAASGCTIWSSAMGWYRQAPGKERELVASITWSGGSTYADSVKGRFTISRDNAKNTVYLQMNSLKPEDTAVYYCARESTLTYYSDDFDYWGQGTQVTVSS
polyreactivity (PSR sort gate): low polyreactivity

QVQLVESGGGLVQAGGSLRLSCAASGFAFSYYAMGWYRPAPGKEREFVASIDWSGGSTYYADSVKGRFTISRDNAKNTVYLQMTSLKPEDTAVYYCAAELDYFPGYDYWGQGTQVTVSS
polyreactivity (PSR sort gate): low polyreactivity

QVQLVESGGGLVQAGGSLRLSCAASGFICRGNAMGLYRQAPGKERELVASISRTGDTTYYADSVKGRFTISRDNAKNTVYLQMNSLTPEDTAVYYCARRSRVGYPLDSWGQATQVTVSS
polyreactivity (PSR sort gate): high polyreactivity

QVQLVESGGGLVQAGGSLRLSCAASGFIFADYMGWYRQAPGKERELDASISSTGSSTYADSVKGRFTISRDNAKNTVYLQMNSLKPEDTAVYYCAATGVWYSWYEYASEYDYWGQGTQVTVSS
polyreactivity (PSR sort gate): high polyreactivity

QVQLVESGGGLVQAGGSLRLSCAASGFIFAEYAMGWYRQATGKERELDAGITSGGSTSYADSVKGRFTISRDNAKNTVYLQMTSLKPDATAVYYCAATWYYHYNDWKHWYEYGYWGLGTQVTVSS
polyreactivity (PSR sort gate): low polyreactivity

QVQLVESGGGLVQAGGSLRLSCAASGFIFAGYAMGWYRQAPGKERELVAAISRRGGRTNYADSVKGRFTISRDNAKNTVYLQMNSLKPEDTAVFYCAAVQASVYYGLGRFDYWGQGTQVTVSS
polyreactivity (PSR sort gate): high polyreactivity

QVQLVESGGGLVQAGGSLRLSCAASGFIFAINAMGWYRQAPGKEREFVAAISSDGASTYYADSVKGRFTISRDNAKNTVYLQMNSLKPEDTAVYYCNAVPYEWTYPYEYYYWGQGTQVTVSS
polyreactivity (PSR sort gate): low polyreactivity

QVQLVESGGGLVQAGGSLRLSCAASGFIFAIYAMGWYRQAPGKERELVAAISSSGGSTYYADSVKGRFTISRDNAKNTVYLQMNSLKPEDTAVYYCNADWSLYWLDYWGQGTQVTVSS
polyreactivity (PSR sort gate): high polyreactivity

QVQLVESGGGLVQAGGSLRLSCAASGFIFANAIGWYRQAPGKEMELVAAITWSGDSTYYADSVKGRFTISRDNAKNTVYLQMNSLKPEDTAVYYCAAVVTNAYRYDYWGQGTQVTVSS
polyreactivity (PSR sort gate): low polyreactivity

QVQLVESGGGLVQAGGSLRLSCAASGFIFAPNVMGWYRQAPGKERELVAAINISGGSTSYADSVKGRFTISRDNAKNTVYLQMNSLKPEDTAVYYCAAEIPAYAYSYSYDYWGQGTQVTVSS
polyreactivity (PSR sort gate): low polyreactivity

QVQLVESGGGLVQAGGSLRLSCAASGFIFARYAMGWYRQAPGKERELVAAISSSGGITYYADSVKGRFTISRDNAKNTVYFQMNSLKPEDTAVYYCAAPLGGGARWGRWWLYDSWGQGTQVTVSS
polyreactivity (PSR sort gate): low polyreactivity

QVQLVESGGGLVQAGGSLRLSCAASGFIFARYAMGWYRQAPGKERELVAAISWSGARTYYADSVKGRFTISRDNAKNTVYLQMNSLKPEDTAVYYCNADYRKVTGDSYDYWGQGTQVTVSS
polyreactivity (PSR sort gate): high polyreactivity

QVQLVESGGGLVQAGGSLRLSCAASGFIFASNAMGWYRQEPGKERELVASITIGDSTYYADSVKGRFTISRDNAKNTVYLQMNSLKPEDTAVYYCAAVKTVDVGYDYWGQGTQVTVSS
polyreactivity (PSR sort gate): low polyreactivity

QVQLVESGGGLVQAGGSLRLSCAASGFIFASYARGWYRQAPGKERELVAAISSSGGSTYADSVKGRFTISRDNAKNTVYLQMNSLKPEDTAVYYCAAQGYGDNRNKYYYWGQGTQVTISS
polyreactivity (PSR sort gate): high polyreactivity

QVQLVESGGGLVQAGGSLRLSCAASGFIFASYTMGWYRQAPGNEREWVAAISRSGGRTYYADSVKGRFTISRDNAKKTVYLQMNSLKPEDTAVYYCATLETTGVNYWGQGTQVTVSS
polyreactivity (PSR sort gate): high polyreactivity

QVQLVESGGGLVQAGGSLRLSCAASGFIFATYTMGWYRQAPGKERELVAAITWRGGSTYYADSVKGRFTISRDNAKNTVYLQMNSLKPEDTAVYYCAAPDVYSYRYVEDDYWGQGTQVTVSS
polyreactivity (PSR sort gate): low polyreactivity

QVQLVESGGGLVQAGGSLRLSCAASGFIFATYTMGWYRQAPGKERKLVAAITWRGGSTYYADSVKGRFTISRDNAKNSVYLQMNSLKPEDTAVYYCAAQDVYSYRYVEDDYWGQGTQVTVSS
polyreactivity (PSR sort gate): low polyreactivity

QVQLVESGGGLVQAGGSLRLSCAASGFIFAWYAMGWYRQAPGKERELVADITSGGDTSYADSVKGRFTISRDNAKNTVYLQMNSLKPEDTAVYYCARDVYIWYGYGYFPEYEYWGQGTQVTVSS
polyreactivity (PSR sort gate): low polyreactivity

QVQLVESGGGLVQAGGSLRLSCAASGFIFAYYAMGLYRQAPGKERELVAAITSDGSTYYADSVKGRFTISRDNAKNTVYLQMNSLKPEDTAVYYCNTYWVLRPGYNYWGQGTQVTVSS
polyreactivity (PSR sort gate): high polyreactivity

QVQLVESGGGLVQAGGSLRLSCAASGFIFAYYAQGWYRQAPGKERELVAAITSRGGSTYYADSVKGRFTSSRDNAKNTVYVQMNSLKPEDTAVYYCAGRGYQRQYYYWGQGTQVTVSS
polyreactivity (PSR sort gate): high polyreactivity

QVQLVESGGGLVQAGGSLRLSCAASGFIFCPNDMGWYRQAPGKERELVADISGTGGGTYADSVKGRFTISRDNAKNTVYLQMNSLKPEDTAVYYCAALYGLYVSPYWYTGYYWGQGTQVTVSS
polyreactivity (PSR sort gate): low polyreactivity

QVQLVESGGGLVQAGGSLRLSCAASGFIFDAYALGWYRQAPGKERELVAAITRGNTYYADSVKGRFTISRDNAKNTVYLQMNSLKPEDTAVYYCAARYWQSYRSQVTHSSTLDYWGQGTQVTVSS
polyreactivity (PSR sort gate): low polyreactivity

From the nanobody polyreactivity screen of Harvey et al. (2022)
